Patent US20250298034A1, “METHODS OF TREATING IMMUNOTHERAPY-ASSOCIATED ADVERSE EFFECTS” (NORTHWESTERN UNIVERSITY, priority 2022, published 2025)

Tested on: human peripheral monocyte differentiated M1 macrophages
Assay: In vitro sMIC induction of PDL1 expression on monocyte-derived macrophages (flow cytometry)
Format: cell-based
Conditions: recombinant sMIC added at day 7, cultured 2 days; FIG. 4E
Method: In vitro macrophage generation from peripheral monocytes: Human peripheral blood monocyte differentiation into macrophages. PBMCs from healthy donors were seeded at the density of 2×10^6 cells/well in a 24 well plate with pre-warmed monocyte attachment media (MAM, Promocell, Cat. No. c-28051) and incubate at 37° C. After 1.5 hr incubation, non-adherent cells were removed. Adherent cells were washed three times with pre-warmed MAM before cultured in macrophage differentiation media respectively, the M1 macrophage generating media (Promocell c-28055) or the M2 macrophage generating media (Promocell c-28056). After 5 days of culture, 50% of the media were replaced with fresh media. At day 7, recombinant sMIC (rsMICB, his-tagged, SinoBiologicals Cat. No 10759-H08H) or control vehicle PBS were added to the culture at indicated concentration. The culture was continued for 2 days before being harvested for analyses.

B1: sMIC: recombinant sMIC (rsMICB, his-tagged, SinoBiologicals Cat. No 10759-H08H) (protein, UniProt Q29980 23-383, looked up)
MHC class I …: AEPHSLRYNLMVLSQDGSVQSGFLAEGHLDGQPFLRYDRQKRRAKPQGQWAENVLGAKTWDTETEDLTENGQDLRRTLTHIKDQKGGLHSLQEIRVCEIHEDSSTRGSRHFYYDGELFLSQNLETQESTVPQSSRAQTLAMNVTNFWKEDAMKTKTHYRAMQADCLQKLQRYLKSGVAIRRTVPPMVNVTCSEVSEGNITVTCRASSFYPRNITLTWRQDGVSLSHNTQQWGDVLPDGNGTYQTWVATRIRQGEEQRFTCYMEHSGNHGTHPVPSGKALVLQSQRTDFPYVSAAMPCFVIIIILCVPCCKKKTSAAEGPELVSLQVLDQHPVGTGDHRDAAQLGFQPLMSATGSTGSTEGT
modifications: His-tag
B1 was tested, and the “PDL1 expression on M1 macrophages” value was “can induce PDL1 expression”.
